Targets include HLA-A*03:01; HLA-A*31:01; HLA-A*11:01; HLA-A*33:01; HLA-A*68:01.
Common to all, as to test: IEDB peptide-MHC binding, purified MHC/competitive/radioactivity; filed as Kd, often an IC50 or EC50 that approximates it; ≥ and ≤ were set here for values at or beyond the usual limits of such assays
Where [1] appears, read: source organism: Vaccinia virus WR.
[2] abbreviates: source organism: SARS coronavirus Tor2.

Data on 19 sequences can be found in the Immune Epitope Database (IEDB).

What is called Kd is a measure of binding affinity in units of concentration. VTRKCPQKK: the dissociation constant (Kd) with HLA-A*03:01 (setting [1]) was 0.762 nM; with HLA-A*31:01 (setting [1]), 13.7 nM; with HLA-A*11:01 (setting [1]), 61.5 nM; with HLA-A*33:01 (setting [1]) it was 12300 nM; in the assay with HLA-A*68:01 (setting [1]), 9880 nM.
In the case of GVVREFLTR, the Kd with HLA-A*03:01 (setting [2]) is 19000 nM; with HLA-A*31:01 (setting [2]), 899 nM; with HLA-A*11:01 (setting [2]), 522 nM; in the assay with HLA-A*33:01 (setting [2]) it was 13200 nM; with HLA-A*68:01 (setting [2]) it was 186 nM.
For the sequence TFFSTFKCY, the dissociation constant (Kd) in the assay with HLA-A*03:01 (setting [2]) amounted to 5800 nM; in the assay with HLA-A*31:01 (setting [2]) it was 797 nM; with HLA-A*11:01 (setting [2]), 4350 nM; with HLA-A*33:01 (setting [2]), 1150 nM; in the assay with HLA-A*68:01 (setting [2]), 1070 nM.
IMFMLIFNVK: the dissociation constant Kd with HLA-A*03:01 (setting [1]) came out at 157 nM; with HLA-A*31:01 (setting [1]), 663 nM; with HLA-A*11:01 (setting [1]) it was 200 nM; in the assay with HLA-A*33:01 (setting [1]), 1220 nM; with HLA-A*68:01 (setting [1]), 136 nM.
On the same counts, the results for STGESSILR are 310 nM, 1340 nM, 928 nM, 4730 nM and 196 nM.
For FLLNKEMYLK, the Kd came out at 59.5 nM with HLA-A*03:01 (setting [2]); 2080 nM with HLA-A*31:01 (setting [2]); 153 nM with HLA-A*11:01 (setting [2]); 2510 nM with HLA-A*33:01 (setting [2]); 986 nM with HLA-A*68:01 (setting [2]).
Take VISKIYTLIY: the dissociation constant Kd in the assay with HLA-A*03:01 (setting [1]) worked out at 101 nM; with HLA-A*31:01 (setting [1]) it was 990 nM; with HLA-A*11:01 (setting [1]), 113 nM; with HLA-A*33:01 (setting [1]) it was 2240 nM; in the assay with HLA-A*68:01 (setting [1]), 1790 nM.
Take MQNCLLRLK: the Kd with HLA-A*03:01 (setting [2]) was found to be 98.3 nM; in the assay with HLA-A*31:01 (setting [2]) it was 13.1 nM; with HLA-A*11:01 (setting [2]), 17.7 nM; in the assay with HLA-A*33:01 (setting [2]) it was 12100 nM; with HLA-A*68:01 (setting [2]) it was 1370 nM.
As for DTSEKYSKGY, the Kd in the assay with HLA-A*03:01 (setting [1]) was at least 70100 nM; with HLA-A*31:01 (setting [1]) it was at least 70000 nM; with HLA-A*11:01 (setting [1]), 886 nM; with HLA-A*33:01 (setting [1]) it was at least 70000 nM; with HLA-A*68:01 (setting [1]) it was 533 nM.
As for NLLDSYFVVK, the Kd with HLA-A*03:01 (setting [2]) is 5370 nM; with HLA-A*31:01 (setting [2]) it was 7220 nM; with HLA-A*11:01 (setting [2]), 1870 nM; in the assay with HLA-A*33:01 (setting [2]), 4590 nM; in the assay with HLA-A*68:01 (setting [2]), 2350 nM.
VALYRRIQR: the dissociation constant Kd with HLA-A*03:01 (setting [1]) is 16100 nM; in the assay with HLA-A*31:01 (setting [1]), 2.27 nM; with HLA-A*11:01 (setting [1]) it was 5240 nM; in the assay with HLA-A*33:01 (setting [1]) it was 12.8 nM; in the assay with HLA-A*68:01 (setting [1]), 256 nM.
On the same counts, the results for DSMDVLAEK are 404 nM, 988 nM, 1.73 nM, 1.81 nM and 0.122 nM.
For DQDALFAYTK, the Kd with HLA-A*03:01 (setting [2]) stood at 4250 nM; with HLA-A*31:01 (setting [2]) it was 3720 nM; in the assay with HLA-A*11:01 (setting [2]) it was 2600 nM; in the assay with HLA-A*33:01 (setting [2]), 9570 nM; with HLA-A*68:01 (setting [2]) it was 1270 nM.
Consider QTVKPGNFNK, for which the dissociation constant Kd with HLA-A*03:01 (setting [2]) amounted to 2730 nM; in the assay with HLA-A*31:01 (setting [2]) it was 1510 nM; with HLA-A*11:01 (setting [2]) it was 249 nM; in the assay with HLA-A*33:01 (setting [2]) it was 10500 nM; with HLA-A*68:01 (setting [2]), 418 nM.
As to KASMLEKYK, the Kd with HLA-A*03:01 (setting [1]) is 4040 nM; with HLA-A*31:01 (setting [1]), 181 nM; in the assay with HLA-A*11:01 (setting [1]) it was 110 nM; with HLA-A*33:01 (setting [1]) it was at least 39200 nM; with HLA-A*68:01 (setting [1]), 2850 nM.
As to QFIKPVSDLY, the Kd is at least 70100 nM with HLA-A*03:01 (setting [1]); at least 46500 nM with HLA-A*31:01 (setting [1]); at least 38300 nM with HLA-A*11:01 (setting [1]); at least 42600 nM with HLA-A*33:01 (setting [1]); 1270 nM with HLA-A*68:01 (setting [1]).
On the same counts, the results for SFIVPEFAK are at least 43500 nM, 27.3 nM, 103 nM, 8350 nM and 1120 nM.
Take ESRPFDLIK: the Kd in the assay with HLA-A*03:01 (setting [1]) was found to be 8370 nM; with HLA-A*31:01 (setting [1]) it was 17900 nM; with HLA-A*11:01 (setting [1]), 1320 nM; in the assay with HLA-A*33:01 (setting [1]) it was 3400 nM; with HLA-A*68:01 (setting [1]) it was 22.1 nM.
On the same counts, the results for FLEFSNRVY are 43.5 nM, 1330 nM, 3210 nM, 8430 nM and 10100 nM.
